Measurements: US7279149B2, “Amino acid composition with increased blood brain barrier permeability” (Mayo Foundation for Medical Education and Research, priority 2003, dated 2007)

What was measured:
[1] = target: T1, amyloid plaques in APP, PS1 transgenic mouse brain (Homo sapiens, UniProt P05067); assay: Labeling of amyloid plaques in APP, PS1 transgenic mouse brain in vivo after IV injection; conditions: 21-month old APP, PS1 mice, 750 μg IV, four hours
T1 construct: from tissue; host or cells: brain of APP (Tg2576) x PS1 (M146L6.2) double transgenic mice
Procedure: a. Subjects. These evaluations were performed using transgenic mice that express two mutant human proteins associated with familial AD and have been described in detail elsewhere (Holcomb, L., et al., Nature Med. 4:97–100, 1998). Hemizygous transgenic mice (Tg2576) expressing mutant human amyloid precursor protein (APP695) (Hsiao, K., et al., Science 274:99–102, 1996) were mated with a second strain of hemizygous transgenic mice (M146L6.2) expressing mutant human presenilin 1 (PS1) (Holcomb, L., et al., supra, 1998). The animals were genotyped for the expression of both transgenes by a PCR method using a sample of mouse-tail DNA. […]
g. […] Silver grains from sections exposed for 6 days and 2 weeks were quantitated using unbiased, stereological techniques. Sections exposed for 4 or 8 weeks were somewhat overexposed such that over many of the plaques the exposed silver grains had become confluent could not be counted accurately. Silver grains were counted over plaques in three sections from each animal in the retrosplenial cortex and CA1 region of the hippocampus using a 10-μm×10-μm dissector at 400×. The mean background level of exposed silver grains was also determined for each section. The results were expressed as the mean number of silver grains/100 μm^2 minus the background. […]

[2] = tested on: amyloid plaques in human AD temporal lobe cortex sections; assay: Labeling of amyloid plaques in human AD brain sections in vitro (emulsion autoradiography); type: binding
Procedure: (§1) f. Labeling of Amyloid Plaques in Human AD and APP, PS1 Mouse Brain Sections In Vitro with Diamine- and Gadolinium-Substituted Aβ30 Peptides. HPLC-purified ^125I-Aβ40, ^125I-Aβ30, ^125I-[N-4ab/Q-4ab]Aβ30, ^125I-Gd[N-4ab/Q-4ab]Aβ30, or buffer was incubated with sections of unfixed AD temporal lobe cortex using the same procedure we used previously (Wengenack, T. M., et al., Neuroscience 101:939–944, 2000). Briefly, the 15 μm-sections were incubated for 3 hours at RT with 100 pM radioiodinated peptide or alone in 250 μl of TBS (50 mM Tris HCl, 138 mM sodium chloride, pH 7.0) containing 0.1% BSA, 0.6 mg/ml magnesium chloride, 0.04 mg/ml bacitracin, 0.002 mg/ml chymostatin, and 0.004 mg/ml leupeptin. The sections then underwent immunohistochemistry (IH) for amyloid using an anti-Aβ monoclonal mouse antibody (4G8, 1:1000, Signet Laboratories, Dedham, Mass.). Next, the sections were dipped in an autoradiographic emulsion (Type NTB-3, Kodak, Rochester, N.Y.) for direct comparison of ^125I-labeled amyloid deposits to anti-Aβ IH. The slides were dipped in emulsion, exposed for various durations, and developed according to the instructions. The sections were dehydrated with successive changes of ethanol and xylene and then coverslipped.

[3] = target: T2, amyloid plaques in APP, PS1 mice (Homo sapiens, UniProt P05067); conditions: 200 μg, PS1 mice at 27 weeks of age (Wengenack 2000); cited from earlier work
T2 construct: host or cells: APP, PS1 mouse brain (earlier studies: Wengenack 2000; Poduslo 2002)

[4] = target: T3, amyloid plaques in APP, PS1 mouse brain sections (Homo sapiens, UniProt P05067); assay: Labeling of amyloid plaques in APP, PS1 transgenic mouse brain sections in vitro; type: binding
T3 construct: from tissue; host or cells: brain of APP (Tg2576) x PS1 (M146L6.2) double transgenic mice
Procedure: as §1, with “coverslipped. […]” for “coverslipped.”

[5] = target: T4, amyloid plaques in APP, PS1 mouse brain (Homo sapiens, UniProt P05067); conditions: PS1 mouse brains ex vivo following IV injection (Poduslo 2002); cited from earlier work
T4 construct: host or cells: APP, PS1 mouse brain (earlier studies: Wengenack 2000; Poduslo 2002)
T4 sequence (P05067 672-711 limits assumed): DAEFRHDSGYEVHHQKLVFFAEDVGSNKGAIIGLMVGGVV

T3 sequence (P05067 672-711 limits assumed): as above
T2 sequence (P05067 672-711 limits assumed): as above
T1 sequence (P05067 672-711 limits assumed): as above

| Substance | labeling of plaques in vivo [1] | labeling of neuritic plaques ([2]; 100 pM radioiodinated peptide, 3 hours at RT, unfixed human AD temporal lobe cortex sections) | labeling of small amyloid deposits ([2]; 100 pM radioiodinated peptide, human AD sections) | exposure time required to detect exposed silver grains ([2]; human AD sections, equal amounts of peptide (100 pM)) [days] | labeling of plaques in vivo, previous study [3] | labeling of neuritic plaques ([4]; 100 pM, unfixed APP) | duration of exposure to achieve a detectable amount of silver grains ([4]; APP, equal amounts of peptide) | contrast enhancement of plaques during MRI [5] |
| --- | --- | --- | --- | --- | --- | --- | --- | --- |
| Aβ40: human amyloid-β peptide Aβ40, radioiodinated; served as a positive control | also labeled plaques in vivo | labeled most dense-core, neuritic type plaques | labeled only a few | 7 | did not label plaques | labeled most of the neuritic plaques | one | – |
| Gd-Aβ40: Gd-DTPA substituted Aβ40 of a previous study | – | – | – | – | – | – | – | not to provide contrast enhancement of plaques |
| (PUT-)Gd-Aβ40: polyamine (putrescine)-modified Gd-Aβ40 of a previous study | – | – | – | – | – | – | – | provide contrast enhancement of plaques |
